From FireProtDB (doi:10.1016/j.jmb.2010.09.022)

B1: Profilin, Q58NA1 (parent)
chain: MSDWDPVVKEWLVDTGYCCAGGIANAEDGVVFAAAADDDDGWSKLYKDDHEEDTIGEDGNACGKVSINEASTIKAAVDDGSAPNGVWIGGQKYKVVRPEKGFEYNDCTFDITMCARSKGGAHLIKTPNGSIVIALYDEEKEQDKGNSRTSALAFAEYLHQSGY

Variants of: B1
Settings: Toxoplasma gondii; pH 7.5; Thermal; CD; HEPES 10mM; KCl 100mM; reversible: yes; structure 3NEC; whole UniProt chain shown

Variant: D38Q D39G
- Tm: 51.3 °C
- change of melting temperature, mutant - wild type (higher = more stable): -1.8 °C

Variant: K94Q V95F R97N P98I T112A M113T
- Tm: 62.2 °C
- change of melting temperature, mutant - wild type (higher = more stable): 9.1 °C
